# According to patent US20060074018A1, “Methods of diagnosing & treating diabetes and insulin resistance” (Metabolex Inc, priority 2002, published 2006):
# What was measured:
# [1] = system: 3T3-L1 adipocytes; test: Glut 4 translocation analysis; format: cell-based, murine; details: for Fold Change (Mean hCTGF/Mean LacZ), cells positive for cell surface Glut 4 / Fold Change (Mean hTIEG/Mean LacZ), cells positive for cell surface Glut 4: n = 3; for Glut 4 translocation with insulin (in words) / Basal Glut 4 translocation (in words): over-expression in 3T3-L1 adipocytes; for Glut 4 translocation with insulin (in words): all insulin concentrations tested; for Basal Glut 4 translocation (in words): no insulin
# From the text: One analysis called “Glut 4 translocation” involves over-expressing the gene in 3T3-L1 adipocytes and then monitoring the ability of insulin to cause the movement (translocation) of the major insulin-regulated glucose transporter, Glut 4, to the cell surface. The cDNA encoding the human gene was sub-cloned into the mammalian expression vector pcDNA3.1 which provides for a V5 epitope tag. This plasmid encoding the human gene was then introduced into differentiated murine 3T3-L1 adipocytes along with a cloned Glut 4 expression construct using an electroporation procedure essentially as described in Kanzaki et al. J. Biol. Chem 275 7167-7175 (2000). A plasmid expressing LacZ was used as a negative control. After stimulation with increasing concentrations of insulin, cells co-expressing both the human gene and cloned Glut 4 were scored for the presence of Glut 4 at the cell surface using fluorescence microscopy.
# [2] = system: 3T3-L1 adipocytes; test: Glucose transport analysis in 3T3-L1 adipocytes; format: cell-based, murine
# Description: (§1) In some instances another analysis called “glucose transport” was used. This involves over-expressing the gene in either differentiated 3T3-L1 adipocytes or differentiated L6 myotubes and then monitoring the ability of insulin to stimulate glucose transport into these two cell types. A recombinant adenovirus encoding the human gene tagged with a FLAG epitope tag was prepared essentially as described in Zhou et al. Proc. Nat. Acad. Sci. USA. 95: 2509-2514. 3T3-L1 adipocytes or L6 myotubes were infected with recombinant adenovims expressing the human gene. A virus expressing an irrelevant protein was used as the control. 24 h post-infection the cells are stimulated with increasing concentrations of insulin and glucose transport into the cells determined by the counting the accumulation of a radiolabelled glucose analog (2-deoxyglucose) essentially as describe in Kotani et al. Mol Cell. Biol. 18 6971-6982 (1998), Fujishiro et al. J. Biol. Chem. 276 19800-19806 (2001), Ross et al. Biochem. Biophys. Res. Commun. 302 354-358 (2003).
# [3] = system: L6 myotubes; test: Glucose transport analysis in L6 myotubes; format: cell-based
# Description: as §1
molecule,measurement,setting,value
"hCTGF: human Connective Tissue Growth Factor (SEQ ID NO:2) over-expressed in cells from pcDNA3.1 plasmid or recombinant adenovirus (protein, listed as Homo sapiens, human connective tissue growth factor (CTGF)) MTAASMGPVRVAFVVLLALCSRPAVGQNCSGPCRCPDEPAPRCPAGVSLVLDGCGCCRVCAKQLGELCTERDPCDPHKGLFCDFGSPANRKIGVCTAKDGAPCIFGGTVYRSGESFQSSCKYQCTCLDGAVGCMPLCSMDVRLPSPDCPFPRRVKLPGKCCEEWVCDEPKDQTVVGPALAAYRLEDTFGPDPTMIRANCLVQTTEWSACSKTCGMGISTRVTNDNASCRLEKQSRLCMVRPCEADLEENIKKGKKCIRTPKISKPIKFELSGCTSMKTYRAKFCGVCTDGRCCTPHRTTTLPVEFKCPDGEVMKKNMMFIKTCACHYNCPGDNDIFESLYYRKMYGDMA","Fold Change (Mean hCTGF/Mean LacZ), cells positive for cell surface Glut 4",[1]; Insulin 0 nM,0.97
same,"Fold Change (Mean hCTGF/Mean LacZ), cells positive for cell surface Glut 4",[1]; Insulin 1 nM,0.35
same,"Fold Change (Mean hCTGF/Mean LacZ), cells positive for cell surface Glut 4",[1]; Insulin 10 nM,0.45
same,Glut 4 translocation with insulin (in words),[1],significantly inhibited Glut 4 translocation at all insulin concentrations tested
same,Basal Glut 4 translocation (in words),[1],little or no effect on basal Glut 4 translocation
same,FC (hCTGF/Con) glucose transport,"[2]; Expt 1, Insulin 0 nM",0.7
same,FC (hCTGF/Con) glucose transport,"[2]; Expt 1, Insulin 0.05 nM",0.6
same,FC (hCTGF/Con) glucose transport,"[2]; Expt 1, Insulin 0.1 nM",0.6
same,FC (hCTGF/Con) glucose transport,"[2]; Expt 1, Insulin 0.3 nM",0.7
same,FC (hCTGF/Con) glucose transport,"[2]; Expt 1, Insulin 1 nM",0.8
same,FC (hCTGF/Con) glucose transport,"[2]; Expt 1, Insulin 10 nM",0.6
same,FC (hCTGF/Con) glucose transport,"[2]; Expt 2, Insulin 0 nM",0.6
same,FC (hCTGF/Con) glucose transport,"[2]; Expt 2, Insulin 0.05 nM",0.6
same,FC (hCTGF/Con) glucose transport,"[2]; Expt 2, Insulin 0.1 nM",0.7
same,FC (hCTGF/Con) glucose transport,"[2]; Expt 2, Insulin 0.3 nM",0.8
same,FC (hCTGF/Con) glucose transport,"[2]; Expt 2, Insulin 1 nM",0.8
same,FC (hCTGF/Con) glucose transport,"[2]; Expt 2, Insulin 10 nM",0.7
same,FC (hCTGF/Con) glucose transport,"[2]; Expt 3, Insulin 0 nM",0.8
same,FC (hCTGF/Con) glucose transport,"[2]; Expt 3, Insulin 0.05 nM",0.7
same,FC (hCTGF/Con) glucose transport,"[2]; Expt 3, Insulin 0.1 nM",0.7
same,FC (hCTGF/Con) glucose transport,"[2]; Expt 3, Insulin 0.3 nM",0.8
same,FC (hCTGF/Con) glucose transport,"[2]; Expt 3, Insulin 1 nM",0.9
same,FC (hCTGF/Con) glucose transport,"[2]; Expt 3, Insulin 10 nM",0.9
same,Mean FC (hCTGF/Con) +/− SEM (n = 3) glucose transport,[2]; Insulin 0 nM,0.70 +/− 0.03
same,Mean FC (hCTGF/Con) +/− SEM (n = 3) glucose transport,[2]; Insulin 0.05 nM,0.63 +/− 0.06
same,Mean FC (hCTGF/Con) +/− SEM (n = 3) glucose transport,[2]; Insulin 0.1 nM,0.67 +/− 0.02
same,Mean FC (hCTGF/Con) +/− SEM (n = 3) glucose transport,[2]; Insulin 0.3 nM,0.76 +/− 0.05
same,Mean FC (hCTGF/Con) +/− SEM (n = 3) glucose transport,[2]; Insulin 1 nM,0.83 +/− 0.02
same,Mean FC (hCTGF/Con) +/− SEM (n = 3) glucose transport,[2]; Insulin 10 nM,0.75 +/− 0.10
same,Glucose transport (in words),"[2]; over-expression in 3T3-L1 adipocytes, basal and insulin stimulated",inhibited both basal and insulin stimulated glucose transport
same,FC (hCTGF/Con) glucose transport,"[3]; Expt 1, Insulin 0 nM",0.78
same,FC (hCTGF/Con) glucose transport,"[3]; Expt 1, Insulin 10 nM",0.67
same,FC (hCTGF/Con) glucose transport,"[3]; Expt 1, Insulin 100 nM",0.70
same,FC (hCTGF/Con) glucose transport,"[3]; Expt 2, Insulin 0 nM",0.79
same,FC (hCTGF/Con) glucose transport,"[3]; Expt 2, Insulin 10 nM",0.92
same,FC (hCTGF/Con) glucose transport,"[3]; Expt 2, Insulin 100 nM",1.05
same,FC (hCTGF/Con) glucose transport,"[3]; Expt 3, Insulin 0 nM",0.79
same,FC (hCTGF/Con) glucose transport,"[3]; Expt 3, Insulin 10 nM",0.77
same,FC (hCTGF/Con) glucose transport,"[3]; Expt 3, Insulin 100 nM",0.74
same,Mean FC (CTGF/Con) +/− SEM (n = 3) glucose transport,[3]; Insulin 0 nM,0.79 +/− 0.004
same,Mean FC (CTGF/Con) +/− SEM (n = 3) glucose transport,[3]; Insulin 10 nM,0.79 +/− 0.07
same,Mean FC (CTGF/Con) +/− SEM (n = 3) glucose transport,[3]; Insulin 100 nM,0.83 +/− 0.11
same,Glucose transport (in words),"[3]; over-expression in L6 myotubes, basal and insulin stimulated",inhibited both basal and insulin stimulated glucose transport
"hTIEG: human TIEG (SEQ ID NO:8) over-expressed in 3T3-L1 adipocytes from pcDNA3.1 plasmid (protein, listed as Homo sapiens, human transforming growth factor-beta (TGFB) inducible early growth response (TIEG)) MEERMEMISERPKESMYSWNKTAEKSDFEAVEALMSMSCSWKSDFKKYVENRPVTPVSDLSEEENLLPGTPDFHTIPAFCLTPPYSPSDFEPSQVSNLMAPAPSTVHFKSLSDTAKPHIAAPFKEEEKSPVSAPKLPKAQATSVIRHTADAQLCNHQTCPMKAASILNYQNNSFRRRTHLNVEAARKNIPCAAVSPNRSKCERNTVADVDEKASAALYDFSVPSSETVICRSQPAPVSPQQKSVLVSPPAVSAGGVPPMPVICQMVPLPANNPVVTTVVPSTPPSQPPAVCPPVVFMGTQVPKGAVMFVVPQPVVQSSKPPVVSPNGTRLSPIAPAPGFSPSAAKVTPQIDSSRIRSHICSHPGCGKTYFKSSHLKAHTRTHTGEKPFSCSWKGCERRFARSDELSRHRRTHTGEKKFACPMCDRRFMRSDHLTKHARRHLSAKKLPNWQMEVSKLNDIALPPTPAPTQ","Fold Change (Mean hTIEG/Mean LacZ), cells positive for cell surface Glut 4",[1]; Insulin 0 nM,1.34
same,"Fold Change (Mean hTIEG/Mean LacZ), cells positive for cell surface Glut 4",[1]; Insulin 1 nM,0.20
same,"Fold Change (Mean hTIEG/Mean LacZ), cells positive for cell surface Glut 4",[1]; Insulin 10 nM,0.11
same,Glut 4 translocation with insulin (in words),[1],significantly inhibited Glut 4 translocation at all insulin concentrations tested
same,Basal Glut 4 translocation (in words),[1],little or no effect on basal Glut 4 translocation
